Substitutions are numbered along the chain they refer to.
B1: XENP34920 (bispecific antibody)
heavy 1: QVQLVQSGAEVKKPGASVKVSCKASGYTFTDYEMHWVRQAPGQGLEWMGALEPKTGDTAYSQKFQGRVTMTADKSISTAYMELSRLRSDDTAVYYCTRFYSYTYWGQGTLVTVSSASTKGPSVFPLAPSSKSTSGGTAALGCLVKDYFPEPVTVSWNSGALTSGVHTFPAVLQSSGLYSLSSVVTVPSSSLGTQTYICNVNHKPSDTKVDKKVEPKSCDKTHTCPPCPAPPVAGPSVFLFPPKPKDTLMISRTPEVTCVVVDVKHEDPEVKFNWYVDGVEVHNAKTKPREEEYNSTYRVVSVLTVLHQDWLNGKEYKCKVSNKALPAPIEKTISKAKGQPREPQVYTLPPSREEMTKNQVSLTCDVSGFYPSDIAVEWESDGQPENNYKTTPPVLDSDGSFFLYSKLTVDKSRWEQGDVFSCSVMHEALHNHYTQKSLSLSPGK
heavy 2: QVQLVQSGAEVKKPGASVKVSCKASGYTFTDYEMHWVRQAPGQGLEWMGALEPKTGDTAYSQKFQGRVTMTADKSISTAYMELSRLRSDDTAVYYCTRFYSYTYWGQGTLVTVSSASTKGPSVFPLAPSSKSTSGGTAALGCLVKDYFPEPVTVSWNSGALTSGVHTFPAVLQSSGLYSLSSVVTVPSSSLGTQTYICNVNHKPSNTKVDKKVEPKSCGGGGSGGGGSQAVVTQEPSLTVSPGGTVTLTCGSSTGAVTTSNYANWVQQKPGKSPRGLIGGTNKRAPGVPARFSGSLLGGKAALTISGAQPEDEADYYCALWYSNHWVFGGGTKLTVLGKPGSGKPGSGKPGSGKPGSEVQLVESGGGLVQPGGSLRLSCAASGFTFSTYAMNWVRQAPGKGLEWVGRIRSKANNYATYYADSVKGRFTISRDDSKNTLYLQMNSLRAEDTAVYYCVRHGNFGDSYVSWFAYWGQGTLVTVSSGGGGSGGGGSKTHTCPPCPAPPVAGPSVFLFPPKPKDTLMISRTPEVTCVVVDVKHEDPEVKFNWYVDGVEVHNAKTKPREEQYNSTYRVVSVLTVLHQDWLNGKEYKCKVSNKALPAPIEKTISKAKGQPREPQVYTLPPSREQMTKNQVKLTCLVKGFYPSDIAVEWESNGQPENNYKTTPPVLDSDGSFFLYSKLTVDKSRWQQGNVFSCSVMHEALHNHYTQKSLSLSPGK
light: DVVMTQSPLSLPVTLGQPASISCRSSQSLVHSSGNTYLHWYQQRPGQSPRLLIYKVSNRFSGVPDRFSGSGSGTDFTLKISRVEAEDVGVYFCSQSTHVPPTFGSGTKLEIKRTVAAPSVFIFPPSDEQLKSGTASVVCLLNNFYPREAKVQWKVDNALQSGNSQESVTEQDSKDSTYSLSSTLTLSKADYEKHKVYACEVTHQGLSSPVTKSFNRGEC
B2: XENP36140 (GPC3-A H1.1_L1.31 formatted as 1+1 Fab-scFv-Fc with CD3 High-Int #1 scFv) (bispecific antibody)
heavy: B1 heavy 1
scFv-Fc: not shown
light: B1 light with S33N, K55Y, S96N
notes: 1+1 Fab-scFv-Fc, human IgG1 heterodimeric backbone; treated as one molecule; also called [GPC3]H1.1_L1.31

Legend:
[1] = molecular target: T1, cell surface GPC3 on GPC3-expressing cell lines (HepG2 GPC3^high, Huh7 GPC3^med) (UniProt P51654 25-554); assay: cell-based or functional assay
T1 sequence (P51654 25-554 limits assumed): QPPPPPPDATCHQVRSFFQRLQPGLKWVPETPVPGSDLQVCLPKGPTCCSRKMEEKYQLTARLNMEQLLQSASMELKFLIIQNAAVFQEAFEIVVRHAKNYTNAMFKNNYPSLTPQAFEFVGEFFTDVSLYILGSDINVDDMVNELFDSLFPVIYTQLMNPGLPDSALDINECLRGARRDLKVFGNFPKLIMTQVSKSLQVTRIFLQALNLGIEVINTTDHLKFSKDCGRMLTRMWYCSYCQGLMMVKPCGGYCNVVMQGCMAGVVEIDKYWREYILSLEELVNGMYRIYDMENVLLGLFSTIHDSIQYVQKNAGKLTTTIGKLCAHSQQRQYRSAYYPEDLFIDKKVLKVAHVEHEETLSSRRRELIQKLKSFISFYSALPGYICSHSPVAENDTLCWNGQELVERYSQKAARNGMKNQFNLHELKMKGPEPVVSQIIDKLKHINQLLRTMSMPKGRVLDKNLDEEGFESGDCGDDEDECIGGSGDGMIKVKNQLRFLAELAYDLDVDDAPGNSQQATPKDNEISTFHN

His-tagged human GPC3 = molecular target: T2, His-tagged human GPC3 (human, UniProt P51654 25-559, limits assumed); assay: Octet (BLI); His-tagged GPC3 captured on HIS1K sensors, bsAb in solution
T2 construct: Captured on HIS1K sensors in the Octet assay; also called human GPC3 antigen; Glypican 3; not shown: His tag
T2 sequence (P51654 25-559 limits assumed): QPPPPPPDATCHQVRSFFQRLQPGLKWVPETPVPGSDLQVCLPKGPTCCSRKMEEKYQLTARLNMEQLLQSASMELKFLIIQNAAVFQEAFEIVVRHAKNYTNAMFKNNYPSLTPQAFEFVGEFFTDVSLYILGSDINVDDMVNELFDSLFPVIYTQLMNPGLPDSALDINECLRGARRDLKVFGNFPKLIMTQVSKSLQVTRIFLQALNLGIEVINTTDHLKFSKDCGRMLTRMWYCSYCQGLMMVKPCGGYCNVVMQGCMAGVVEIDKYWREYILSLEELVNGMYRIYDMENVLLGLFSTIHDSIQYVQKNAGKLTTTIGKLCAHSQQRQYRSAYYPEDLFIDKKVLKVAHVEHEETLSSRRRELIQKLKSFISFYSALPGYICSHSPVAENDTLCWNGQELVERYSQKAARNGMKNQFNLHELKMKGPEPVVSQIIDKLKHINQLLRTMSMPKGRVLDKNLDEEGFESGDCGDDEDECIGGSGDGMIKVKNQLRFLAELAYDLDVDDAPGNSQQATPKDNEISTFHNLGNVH
Protocol: After humanization, GPC3 binding arms were engineered with single point mutations in the variable light domain with the aim to create a ladder of GPC3 binding affinity, illustrative sequences for which are depicted in FIG. 13. 73 variable light domain variants were engineered and paired with GPC3-A H1.1 (see Example 3C for description of GPC3-A H1.1 variant). The GPC3-A variants were engineered in the 1+1 Fab-scFv-Fc bsAb format and binding for GPC3 antigen was measured using Octet, a BioLayer Interferometry (BLI)-based method. Experimental steps for Octet generally include the following: Immobilization (capture of ligand to a biosensor); Association (dipping of ligand-coated biosensors into wells containing the analyte); and Dissociation (returning of biosensors to well containing buffer). For ease of clinical development (e.g. by investigating the therapeutics in model animals), it is useful for the binding domains to be cross-reactive for cynomolgus antigen; therefore, binding to both human and cynomolgus GPC3 antigen were investigated. His-tagged human and cynomolgus GPC3 were captured on HIS1K sensors then dipped into multiple concentrations of the bispecific antibodies. The resulting dissociation constant (KD) are depicted in FIG. 23.

[2] = molecular target: T1, cell surface GPC3 on GPC3-expressing …; assay: flow cytometry on HepG2 (GPC3high) cells, secondary antibody stain
Protocol: (§1) Next, binding of the variants to cell surface GPC3 was investigated. Illustrative affinity variants H1.1_L1.29, H1.1_L1.16, and H1.1_L1.31 were engineered in the 1+1 Fab-scFv-Fc format. […] Cells were then washed and stained with a secondary antibody (typically anti-human Fc AlexaFlour647) for 1 hr at 4° C. After 2 more washes, cells were analyzed by flow cytometry.

[3] = molecular target: T1, cell surface GPC3 on GPC3-expressing …; assay: flow cytometry on HepG2 (GPC3high) cells, anti-human Fc secondary
Protocol: as §1

Row | Binder | EC50 of RTCC (2D RTCC on Incucyte, HepG2, 10:1 effector:target ratio) [1] [µg/mL] | Kd (His-tagged human GPC3) [nM] | EC50 (read off the curve) [2] [µg/mL] | EC50 (read off the curve) [3] [µg/mL]
1 | B1 | < 0.1 | – | – | –
2 | B2 | – | 400 | ~3 | ~3

Reference: US20240034815A1 (Xencor, published 2024)
